Assay results published in US20230272029A1, “CO-AGONISTS AT GLP-1 AND GIP RECEPTORS SUITABLE FOR ORAL DELIVERY” (Novo Nordisk A/S, priority 2020, published 2023).
Starred links: 1 amine or outer side, 2 acyl side, 3 side chain; linkers in the order of their positions; H or OH if unused. Non-standard residues stand in square brackets, D forms with d. Groups on a side chain read outwards from the residue. No end group written: not given here. *: point of attachment. C18 diacid = O=C(O)CCCCCCCCCCCCCCCCC(=O)*; γGlu = O=C(O)[C@H](CCC(=O)[*:2])N[*:1]; εLys = N[C@@H](CCCCN[*:1])C(=O)[*:2]; Aib = CC(C)(N)C(=O)O

T1: human GIP receptor (human, UniProt P48546 22-466)
T1 sequence (looked up): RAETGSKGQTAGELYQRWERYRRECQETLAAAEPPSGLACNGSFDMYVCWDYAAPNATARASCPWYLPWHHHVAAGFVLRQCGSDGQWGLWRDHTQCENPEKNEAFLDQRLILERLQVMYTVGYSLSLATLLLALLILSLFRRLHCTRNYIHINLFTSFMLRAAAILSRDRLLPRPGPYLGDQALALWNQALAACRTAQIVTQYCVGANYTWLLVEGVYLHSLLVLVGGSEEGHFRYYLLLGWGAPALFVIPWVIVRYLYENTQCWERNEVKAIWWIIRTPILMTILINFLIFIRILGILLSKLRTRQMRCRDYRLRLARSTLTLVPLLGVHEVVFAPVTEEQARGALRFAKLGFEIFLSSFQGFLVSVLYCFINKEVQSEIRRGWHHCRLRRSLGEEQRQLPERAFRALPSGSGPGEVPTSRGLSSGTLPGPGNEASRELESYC

B1: Compound No. 41 (peptide)
peptide: Y[Aib]EGTFTSDYSK([εLys-εLys-γGlu-C18 diacid])YLEEQAAREFINWLLAGGPSSGAPPPS-OH
modifications: N-terminus assumed
SMILES: CC[C@H](C)[C@H](NC(=O)[C@H](Cc1ccccc1)NC(=O)[C@H](CCC(=O)O)NC(=O)[C@H](CCCNC(=N)N)NC(=O)[C@H](C)NC(=O)[C@H](C)NC(=O)[C@H](CCC(N)=O)NC(=O)[C@H](CCC(=O)O)NC(=O)[C@H](CCC(=O)O)NC(=O)[C@H](CC(C)C)NC(=O)[C@H](Cc1ccc(O)cc1)NC(=O)[C@H](CCCCNC(=O)[C@@H](N)CCCCNC(=O)[C@@H](N)CCCCNC(=O)CC[C@H](NC(=O)CCCCCCCCCCCCCCCCC(=O)O)C(=O)O)NC(=O)[C@H](CO)NC(=O)[C@H](Cc1ccc(O)cc1)NC(=O)[C@H](CC(=O)O)NC(=O)[C@H](CO)NC(=O)[C@@H](NC(=O)[C@H](Cc1ccccc1)NC(=O)[C@@H](NC(=O)CNC(=O)[C@H](CCC(=O)O)NC(=O)C(C)(C)NC(=O)[C@@H](N)Cc1ccc(O)cc1)[C@@H](C)O)[C@@H](C)O)C(=O)N[C@@H](CC(N)=O)C(=O)N[C@@H](Cc1c[nH]c2ccccc12)C(=O)N[C@@H](CC(C)C)C(=O)N[C@@H](CC(C)C)C(=O)N[C@@H](C)C(=O)NCC(=O)NCC(=O)N1CCC[C@H]1C(=O)N[C@@H](CO)C(=O)N[C@@H](CO)C(=O)NCC(=O)N[C@@H](C)C(=O)N1CCC[C@H]1C(=O)N1CCC[C@H]1C(=O)N1CCC[C@H]1C(=O)N[C@@H](CO)C(=O)O
B2: Compound No. 3 (peptide)
peptide: Y[Aib]EGTFTSDYSYYLEK([εLys-εLys-γGlu-C18 diacid])QAAQEFVNWLLAGGPSSGAPPPS-NH2
modifications: N-terminus assumed
SMILES: CC(C)C[C@H](NC(=O)[C@H](CC(C)C)NC(=O)[C@H](Cc1c[nH]c2ccccc12)NC(=O)[C@H](CC(N)=O)NC(=O)[C@@H](NC(=O)[C@H](Cc1ccccc1)NC(=O)[C@H](CCC(=O)O)NC(=O)[C@H](CCC(N)=O)NC(=O)[C@H](C)NC(=O)[C@H](C)NC(=O)[C@H](CCC(N)=O)NC(=O)[C@H](CCCCNC(=O)[C@@H](N)CCCCNC(=O)[C@@H](N)CCCCNC(=O)CC[C@H](NC(=O)CCCCCCCCCCCCCCCCC(=O)O)C(=O)O)NC(=O)[C@H](CCC(=O)O)NC(=O)[C@H](CC(C)C)NC(=O)[C@H](Cc1ccc(O)cc1)NC(=O)[C@H](Cc1ccc(O)cc1)NC(=O)[C@H](CO)NC(=O)[C@H](Cc1ccc(O)cc1)NC(=O)[C@H](CC(=O)O)NC(=O)[C@H](CO)NC(=O)[C@@H](NC(=O)[C@H](Cc1ccccc1)NC(=O)[C@@H](NC(=O)CNC(=O)[C@H](CCC(=O)O)NC(=O)C(C)(C)NC(=O)[C@@H](N)Cc1ccc(O)cc1)[C@@H](C)O)[C@@H](C)O)C(C)C)C(=O)N[C@@H](C)C(=O)NCC(=O)NCC(=O)N1CCC[C@H]1C(=O)N[C@@H](CO)C(=O)N[C@@H](CO)C(=O)NCC(=O)N[C@@H](C)C(=O)N1CCC[C@H]1C(=O)N1CCC[C@H]1C(=O)N1CCC[C@H]1C(=O)N[C@@H](CO)C(N)=O
B3: Compound No. 30 (peptide)
peptide: Y[Aib]EGTFTSDYSILLEK([εLys-εLys-γGlu-C18 diacid])QAAHEFIEWLLAGGPSSGAPPPS-OH
modifications: N-terminus assumed
SMILES: CC[C@H](C)[C@H](NC(=O)[C@H](Cc1ccccc1)NC(=O)[C@H](CCC(=O)O)NC(=O)[C@H](Cc1c[nH]cn1)NC(=O)[C@H](C)NC(=O)[C@H](C)NC(=O)[C@H](CCC(N)=O)NC(=O)[C@H](CCCCNC(=O)[C@@H](N)CCCCNC(=O)[C@@H](N)CCCCNC(=O)CC[C@H](NC(=O)CCCCCCCCCCCCCCCCC(=O)O)C(=O)O)NC(=O)[C@H](CCC(=O)O)NC(=O)[C@H](CC(C)C)NC(=O)[C@H](CC(C)C)NC(=O)[C@@H](NC(=O)[C@H](CO)NC(=O)[C@H](Cc1ccc(O)cc1)NC(=O)[C@H](CC(=O)O)NC(=O)[C@H](CO)NC(=O)[C@@H](NC(=O)[C@H](Cc1ccccc1)NC(=O)[C@@H](NC(=O)CNC(=O)[C@H](CCC(=O)O)NC(=O)C(C)(C)NC(=O)[C@@H](N)Cc1ccc(O)cc1)[C@@H](C)O)[C@@H](C)O)[C@@H](C)CC)C(=O)N[C@@H](CCC(=O)O)C(=O)N[C@@H](Cc1c[nH]c2ccccc12)C(=O)N[C@@H](CC(C)C)C(=O)N[C@@H](CC(C)C)C(=O)N[C@@H](C)C(=O)NCC(=O)NCC(=O)N1CCC[C@H]1C(=O)N[C@@H](CO)C(=O)N[C@@H](CO)C(=O)NCC(=O)N[C@@H](C)C(=O)N1CCC[C@H]1C(=O)N1CCC[C@H]1C(=O)N1CCC[C@H]1C(=O)N[C@@H](CO)C(=O)O
B4: Compound No. 29 (peptide)
peptide: Y[Aib]EGTFTSDYSILLEK([εLys-εLys-γGlu-C18 diacid])QAAQEFIEWLLAGGPSSGAPPPS-OH
modifications: N-terminus assumed
SMILES: CC[C@H](C)[C@H](NC(=O)[C@H](Cc1ccccc1)NC(=O)[C@H](CCC(=O)O)NC(=O)[C@H](CCC(N)=O)NC(=O)[C@H](C)NC(=O)[C@H](C)NC(=O)[C@H](CCC(N)=O)NC(=O)[C@H](CCCCNC(=O)[C@@H](N)CCCCNC(=O)[C@@H](N)CCCCNC(=O)CC[C@H](NC(=O)CCCCCCCCCCCCCCCCC(=O)O)C(=O)O)NC(=O)[C@H](CCC(=O)O)NC(=O)[C@H](CC(C)C)NC(=O)[C@H](CC(C)C)NC(=O)[C@@H](NC(=O)[C@H](CO)NC(=O)[C@H](Cc1ccc(O)cc1)NC(=O)[C@H](CC(=O)O)NC(=O)[C@H](CO)NC(=O)[C@@H](NC(=O)[C@H](Cc1ccccc1)NC(=O)[C@@H](NC(=O)CNC(=O)[C@H](CCC(=O)O)NC(=O)C(C)(C)NC(=O)[C@@H](N)Cc1ccc(O)cc1)[C@@H](C)O)[C@@H](C)O)[C@@H](C)CC)C(=O)N[C@@H](CCC(=O)O)C(=O)N[C@@H](Cc1c[nH]c2ccccc12)C(=O)N[C@@H](CC(C)C)C(=O)N[C@@H](CC(C)C)C(=O)N[C@@H](C)C(=O)NCC(=O)NCC(=O)N1CCC[C@H]1C(=O)N[C@@H](CO)C(=O)N[C@@H](CO)C(=O)NCC(=O)N[C@@H](C)C(=O)N1CCC[C@H]1C(=O)N1CCC[C@H]1C(=O)N1CCC[C@H]1C(=O)N[C@@H](CO)C(=O)O

Biological target: human GLP-1 receptor (human, UniProt P43220 24-463)
Assay: cell-based or functional assay

| Binder | hGLP-1R, CRE Luc 0% HSA EC50 (pM) | hGLP-1R, CRE Luc 1% HSA EC50 (pM) |
| --- | --- | --- |
| B1 | 1.2 | 31.4 |
| B2 | 8.5 | 626 |
| B3 | 7.3 | 268 |
| B4 | 16.8 | 378 |

Biological target: T1, human GIP receptor
Assay: cell-based or functional assay

| Binder | hGIPR, CRE Luc 0% HSA EC50 (pM) | hGIPR, CRE Luc 1% HSA EC50 (pM) |
| --- | --- | --- |
| B1 | 4.9 | 79.3 |
| B2 | 6.9 | 229 |
| B3 | 3.2 | 185 |
| B4 | 3.8 | 102 |
